Assay results published in patent publication US20200347127A1 (CRESCENDO BIOLOGICS, published 2020).
Substitutions are numbered along the chain they refer to. In names and notes the source's numbering stands. Read-outs that look alike come from different tables or passages of the source.

Experiments:
[1] = target: T1, recombinant human IL-17A (human, UniProt Q16552 24-155); assay: BIAcore single-cycle kinetics on IL-17A (n=2 per legend)
T1 construct: Bought recombinant protein (Peprotech AF-200-17); also called Peprotech AF-200-17

[2] = target: T1, recombinant human IL-17A; assay: cell-based or functional assay
[3] = target: T1, recombinant human IL-17A; assay: SPR (BIAcore T200), IL-17A coupled to CM5 chip, single-cycle kinetics
[4] = target: T1, recombinant human IL-17A; assay: BIAcore single-cycle kinetics, ligand Il-17, 1:1 binding fit, 25 C (n=1 per legend)
[5] = target: T1, recombinant human IL-17A; assay: competition ELISA, IL-17A binding to coated IL-17RA-Fc
[6] = target: T1, recombinant human IL-17A; assay: cell-based or functional assay; remark: listed apart in the source
[7] = target: T1, recombinant human IL-17A; assay: BIAcore single-cycle kinetics, ligand Il-17, 1:1 binding fit, 25 C (n=1 per legend); remark: listed apart in the source
[8] = target: T1, recombinant human IL-17A; assay: cell-based or functional assay; remark: listed apart in the source
[9] = target: T1, recombinant human IL-17A; assay: SPR (BIAcore T200), IL-17A coupled to CM5 chip, single-cycle kinetics; remark: listed apart in the source
[10] = target: T1, recombinant human IL-17A; assay: BIAcore single-cycle kinetics on IL-17A (n=2 per legend); remark: listed apart in the source
[11] = target: T1, recombinant human IL-17A; assay: competition ELISA, IL-17A binding to coated IL-17RA-Fc; FIG. 9A
[12] = target: T2, IL17E; assay: specificity ELISA on coated antigen, VH concentration not given
T2 construct: also called IL-25
T2 chain: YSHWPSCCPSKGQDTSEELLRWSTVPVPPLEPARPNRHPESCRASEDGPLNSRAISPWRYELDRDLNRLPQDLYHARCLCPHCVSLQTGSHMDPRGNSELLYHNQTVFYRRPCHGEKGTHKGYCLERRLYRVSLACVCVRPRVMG

[13] = target: T3, IL-17C (UniProt Q9P0M4 19-197, limits assumed); assay: as above
T3 sequence (looked up): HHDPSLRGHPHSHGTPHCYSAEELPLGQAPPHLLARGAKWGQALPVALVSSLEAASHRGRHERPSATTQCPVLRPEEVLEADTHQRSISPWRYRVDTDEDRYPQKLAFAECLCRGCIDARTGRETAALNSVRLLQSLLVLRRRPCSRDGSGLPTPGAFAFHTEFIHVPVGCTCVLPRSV

[14] = target: T4, IL-17F (UniProt Q96PD4 31-163, limits assumed); assay: as above
T4 sequence (looked up): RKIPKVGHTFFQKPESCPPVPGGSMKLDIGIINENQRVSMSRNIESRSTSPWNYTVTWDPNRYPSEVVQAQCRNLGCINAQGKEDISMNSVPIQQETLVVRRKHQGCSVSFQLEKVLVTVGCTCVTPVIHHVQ

[15] = target: T1, recombinant human IL-17A; assay: SPR (BIAcore)
[16] = target: T1, recombinant human IL-17A; assay: VH screening as in examples 7 and 8
[17] = target: T3, IL-17C; assay: specificity ELISA on coated antigen, VH concentration not given; remark: listed apart in the source
[18] = target: T5, murine IL-17A (murine, UniProt Q62386 26-158, limits assumed); assay: as above
T5 sequence (looked up): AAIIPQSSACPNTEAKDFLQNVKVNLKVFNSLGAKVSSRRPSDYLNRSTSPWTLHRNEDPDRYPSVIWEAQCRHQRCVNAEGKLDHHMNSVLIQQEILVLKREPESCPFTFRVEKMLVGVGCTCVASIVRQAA

[19] = target: T4, IL-17F; assay: as above; remark: listed apart in the source
[20] = target: T6, recombinant IL-17RA-Fc (UniProt Q96F46 33-320); assay: as above
T6 construct: Bought reagent; also called R & D systems cat #177-IR-100; receptor; not shown: Fc part of the bought fusion, not described

[21] = target: T1, recombinant human IL-17A; assay: BIAcore single-cycle kinetics on immobilised IL-17A, 1:1 binding fit
[22] = target: T1, recombinant human IL-17A; assay: SPR (BIAcore T200), IL-17A coupled to CM5 chip, single-cycle kinetics; remark: listed apart in the source
[23] = target: T1, recombinant human IL-17A; assay: cell-based or functional assay; remark: listed apart in the source
[24] = target: T1, recombinant human IL-17A; assay: competition ELISA, IL-17A binding to coated IL-17RA-Fc; remark: listed apart in the source
[25] = target: T1, recombinant human IL-17A; assay: cell-based or functional assay; remark: listed apart in the source
[26] = target: T1, recombinant human IL-17A; assay: BIAcore single-cycle kinetics on IL-17A (n=2 per legend); remark: listed apart in the source
[27] = target: T1, recombinant human IL-17A; assay: BIAcore single-cycle kinetics, ligand Il-17, 1:1 binding fit, 25 C (n=1 per legend); remark: listed apart in the source
[28] = target: T1, recombinant human IL-17A; assay: BIAcore single-cycle kinetics on immobilised IL-17A, 1:1 binding fit; remark: listed apart in the source

T1 sequence (Q16552 24-155): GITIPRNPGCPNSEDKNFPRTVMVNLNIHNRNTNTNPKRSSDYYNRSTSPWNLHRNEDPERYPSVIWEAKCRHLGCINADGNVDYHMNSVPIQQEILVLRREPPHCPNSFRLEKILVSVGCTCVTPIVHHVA

B1: VH 3.2.1 (clone 3.2 expressed from phagemid vector: with linker residues and His tag) (VHH)
VHH: QVQLVQSGAEVKKPGASVKVSCKASGYNADAYYINWVRQAPGQGLEWMGSIKPNTGATKYAQKFQGRVTITRDTSISTAYMELSRLRSDDTAVYYCASLDRDTWYPHSYAGWFDAWGQGTLVTVSS
notes: Human single VH domain
B1 was tested, and the Kd [1] was 0.212 nM, the “Cell assay IC50 (nM), IL-17A-induced IL6 release from HT1080” value (“Cell assay IC50 (nM)” below) [2] was 2.5 nM and the Kd [3] was 0.23 nM. For the same binder, the koff [3] was 0.000252 s⁻¹, the kon [3] was 1.1e+06 M⁻¹ s⁻¹ and the Kd [4] was 0.15 nM. The koff [4] was 0.000349 s⁻¹, the kon [4] was 2.28e+06 M⁻¹ s⁻¹ and the IC50 [5] was 2.5 nM.

B2: Clone 1.2 (VHH)
VHH: EVQLVESGGGLVQPGGSLRLSCAASGFTFSSYSMYWVRQAPGKGLEWVAEIKQDGSVQYYVSDVKGRFTISRDNAKNSLYLQMNSLRAEDTAVYYCAKGEILPLYFDYWGQGTLVTVSS
With B2 the “Cell assay IC50 (nM)” value [6] was 0.4 nM, the Kd [7] was 0.675 nM and the koff [7] was 2.26e-05 s⁻¹. The kon [7] was 33500 M⁻¹ s⁻¹, the “EC50 (read off the curve)” value [8] was about 0.8 nM and the Kd [9] was 0.555 nM. The koff [9] was 0.000485 s⁻¹, the kon [9] was 874000 M⁻¹ s⁻¹ and the Kd [10] was 0.57 nM.

B3: VH 1.6.1 (clone 1.6 expressed from phagemid vector: with linker residues and His tag) (VHH)
VHH: B2 VHH with V57E, S62D, D63S
notes: Human single VH domain
In the case of B3, the IC50 [11] is reported as 5 nM, the “Cell assay IC50 (nM)” value [6] is reported as 1.3 nM and the binding result [12] is reported as “no binding”. The binding result [13] was “no binding”, the binding result [14] was “no binding” and the Kd [15] was 0.63 nM. It also gave a Kd [9] of 0.627 nM, a koff [9] of 0.000482 s⁻¹ and a kon [9] of 770000 M⁻¹ s⁻¹. The “fold improved affinity over clone 1.1” value [16] was at most 10 fold.

B4: VH 1.7.1 (clone 1.7 expressed from phagemid vector: with linker residues and His tag) (VHH)
VHH: B2 VHH with E1Q, S33G, E50K, K52E, V57E, Q58E, S62D, D63S, N77K
notes: Human single VH domain
B4 was tested, and the IC50 [11] was 7 nM, the “Cell assay IC50 (nM)” value [6] was 2 nM and the Kd [9] was 0.609 nM. The koff [9] was 0.000466 s⁻¹, the kon [9] was 765000 M⁻¹ s⁻¹ and the “fold improved affinity over clone 1.1” value [16] was at most 10 fold.

B5: VH 1.10.1 (clone 1.10 expressed from phagemid vector: with linker residues and His tag) (VHH)
VHH: B2 VHH with S33R, E50S, K52E, V57E, Q58E, S62D, D63S, N77K, Y80F
notes: Human single VH domain
B5: no binding [17]; binds [18]; no binding [19]. For the same binder, the binding result [20] was “no binding”, the IC50 [11] was 4 nM and the koff [21] was 0.000755 s⁻¹. For the same binder, the kon [21] was 700000 M⁻¹ s⁻¹, the “Cell assay IC50 (nM)” value [6] was 1.9 nM and the binding result [12] was “no binding”. It also gave a Kd [15] of 1 nM, a Kd [9] of 1.46 nM and a koff [9] of 0.000966 s⁻¹. The kon [9] was 664000 M⁻¹ s⁻¹ and the “fold improved affinity over clone 1.1” value [16] was at most 10 fold.

B6: Family 2 (clone 2.1) (VHH)
VHH: QVQLVESGGGLVQPGGSLRLSCAASGFTFSSYGMGWVRQAPGKGLEWVAKIKQDGSEKDYVDSVKGRFTISRDNAKKSLFLQMNSLRAEDTAVYYCARESIFGIPEDWGQGTLVTVSS
notes: Human single VH domain; also called VH 2.1.1
For B6, the Kd [22] was 2 nM, the koff [22] was 0.00247 s⁻¹ and the kon [22] was 1.22e+06 M⁻¹ s⁻¹. The “Cell assay IC50 (nM)” value [23] was 8.3 nM and the IC50 [24] was 32 nM.

B7: 3.2-2(G4S)-1.2 (VHH)
VH-linker-VH: QVQLVQSGAEVKKPGASVKVSCKASGYNADAYYINWVRQAPGQGLEWMGSIKPNTGATKYAQKFQGRVTITRDTSISTAYMELSRLRSDDTAVYYCASLDRDTWYPHSYAGWFDAWGQGTLVTVSSAAGGGGSGGGGSEVQLVESGGGLVQPGGSLRLSCAASGFTFSSYSMYWVRQAPGKGLEWVAEIKQDGSVQYYVSDVKGRFTISRDNAKNSLYLQMNSLRAEDTAVYYCAKGEILPLYFDYWGQGTLVTVSS
notes: also called Biparatopic: 3.2-2(G4S)-1.2
B7 gave an EC50 [25] of 1.07 nM, a Kd [26] of 0.045 nM and a Kd [27] of 0.0429 nM. The koff [27] was 4.75e-05 s⁻¹ and the kon [27] was 1.1e+06 M⁻¹ s⁻¹.

B8: VH 1.3.2 (clone 1.3 with C terminal extension and His tag) (VHH)
VHH: B2 VHH with S62D, D63S
notes: Human single VH domain
Work on B8 yielded a koff [28] of 0.000501 s⁻¹, a kon [28] of 799000 M⁻¹ s⁻¹ and a Kd [15] of 0.63 nM.

B9: VH 1.3.3 (clone 1.3 with C terminal extension) (VHH)
VHH: B2 VHH with S62D, D63S
notes: Human single VH domain
For B9, the Kd [28] was 0.68 nM and the kon [28] was 750000 M⁻¹ s⁻¹.

B10: Family 4 (clone 4.1) (VHH)
VHH: QVQLVESGGGLVQPGGSLRLSCAASGFTFSSYWMNWVRQAPGKGLEWVATIKQDGSEKYYVDSVKGRFTISRDNATNSLFLQMNSLRAEDTAVYYCARGDTIFDGAFDIWGQGTMVTVSS
notes: Human single VH domain
In the case of B10, the Kd [22] is reported as 493 nM, the koff [22] is reported as 0.00289 s⁻¹ and the kon [22] is reported as 5860 M⁻¹ s⁻¹. It also gave an IC50 [24] of 3140 nM.

B11: Family 5 (clone 5.1) (VHH)
VHH: EVQLVESGGGLVQPGGSLRLSCAASGFTFSSYWMSWVRQAPGKGLEWVANIKQDGSEKYYVDSVKGRFTISRDNAKNSLYLQMNSLRAEDTAVYYCAHGQWPFFDYWGQGTMVTVSS
notes: Human single VH domain
B11 was tested, and the Kd [22] was 166 nM, the koff [22] was 0.0505 s⁻¹ and the kon [22] was 304000 M⁻¹ s⁻¹. The IC50 [24] was 337 nM.
